From paper PMC10502012 (2023)
Like-named read-outs stand apart in the source and are kept apart here. No end group written: not given here. PEG = not defined here; Cy5 = Cy5 dye

B1: TASL 1-13 S3A (peptide)
chain: MLAEGYLYRIAYL
B2: fluorescently labeled TASL_(1-13) peptide (peptide)
chain: MLSEGYLYRIAYL-{PEG-Cy5}
modifications: reading uncertain
B3: TASL peptide with a length of 17 residues (peptide)
chain: MLSEGYLYRIAYLCEDS
B4: TASL 2-13 (peptide)
chain: LSEGYLYRIAYL
B5: TASL 1-13-GSGS (peptide)
chain: MLSEGYLYRIAYLGSGS
B6: TASL 1-12 (peptide)
chain: MLSEGYLYRIAY
B7: TASL 1-13 Y6A (peptide)
chain: MLSEGALYRIAYL
B8: TASL peptide with a length of 21 residues (peptide)
chain: MLSEGYLYRIAYLCEDSELCT
B9: TASL 1-13 M1A (peptide)
chain: ALSEGYLYRIAYL
B10: TASL 4-13 (peptide)
chain: EGYLYRIAYL
B11: TASL 3-13 (peptide)
chain: SEGYLYRIAYL
B12: TASL 1-13 Y8A (peptide)
chain: MLSEGYLARIAYL
B13: TASL 1-13 R9A (peptide)
chain: MLSEGYLYAIAYL
B14: TASL 1-13-GSGSGS (peptide)
chain: MLSEGYLYRIAYLGSGSGS
B15: TASL peptide with a length of 15 residues (peptide)
chain: MLSEGYLYRIAYLCE
B16: TASL 1-13 L2A (peptide)
chain: MASEGYLYRIAYL
B17: TASL 1-13-GS (peptide)
chain: MLSEGYLYRIAYLGS
B18: TASL 1-13 L7A (peptide)
chain: MLSEGYAYRIAYL
B19: TASL 1-14 C14A (peptide)
chain: MLSEGYLYRIAYLA

Columns and labels:
[1] = target: chicken PHT1 (purified, wild type) (chicken)
[2] = target: chicken PHT1 (purified, wild type) (chicken); assay: MST
[3] = target: chicken PHT1 (purified, wild type) (chicken); remark: listed apart in the source

Sequence of chicken PHT1 (purified, wild type) (chicken) (chain, as listed by the source): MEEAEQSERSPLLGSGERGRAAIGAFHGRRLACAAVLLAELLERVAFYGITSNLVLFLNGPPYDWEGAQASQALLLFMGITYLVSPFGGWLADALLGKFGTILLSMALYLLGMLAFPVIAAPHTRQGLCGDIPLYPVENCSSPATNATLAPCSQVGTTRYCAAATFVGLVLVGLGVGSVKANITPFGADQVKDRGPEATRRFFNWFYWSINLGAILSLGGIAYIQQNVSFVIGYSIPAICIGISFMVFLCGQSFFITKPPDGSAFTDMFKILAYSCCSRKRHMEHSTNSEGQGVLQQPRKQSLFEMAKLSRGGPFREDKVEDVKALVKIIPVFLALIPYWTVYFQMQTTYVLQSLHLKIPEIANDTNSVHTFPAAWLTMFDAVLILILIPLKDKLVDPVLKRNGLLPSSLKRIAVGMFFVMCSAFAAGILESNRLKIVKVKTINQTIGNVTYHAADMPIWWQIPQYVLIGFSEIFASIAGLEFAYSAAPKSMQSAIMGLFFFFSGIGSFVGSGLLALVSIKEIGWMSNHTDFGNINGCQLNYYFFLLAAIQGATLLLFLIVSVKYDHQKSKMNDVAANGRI

Binder	Kd [1] [µM]	other results
B1	0.69	–
B2	–	Kd [2]: 0.361 µM
B3	–	Kd [3]: 1.35 µM
B4	9.11	–
B5	0.58	–
B6	1.74	–
B7	1.53	–
B8	–	Kd [3]: 4.05 µM
B9	15.4	–
B10	10.5	–
B11	7.63	–
B12	2.12	–
B13	3.36	–
B14	0.41	–
B15	–	Kd [3]: 1.76 µM
B16	7.28	–
B17	0.71	–
B18	0.31	–
B19	0.4	–
